Source: PMC10458388 (2023)

Target: C-terminus of human Hsp90α (residues 566-732) (Homo sapiens (Human), UniProt P07900)
Assay: SEC-MALS-QELS

C-terminus of human Hsp90α (residues 566-732), sequence (P07900 566-732): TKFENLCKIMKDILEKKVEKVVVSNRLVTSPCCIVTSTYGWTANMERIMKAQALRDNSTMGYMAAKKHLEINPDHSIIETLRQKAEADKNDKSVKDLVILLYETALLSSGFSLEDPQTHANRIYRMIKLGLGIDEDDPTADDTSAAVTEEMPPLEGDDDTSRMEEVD

binding result: binds
B1: Sorghum bicolor RPAP3 (RNA polymerase II-associated protein 3), isoform 2 (protein)
chain: MEYKARSSGTSGTSTKSFRDLYNMKYSSYLNDEPMPDATSEKEQGNEYFKQKKFADAIECYSRSIGLSPTAVTFANRAMAYLKLRRFKEAEDDCTEALNLDDRYIKAYSRRITARKELGKLKEAMEDAEFAISLDPNNPELRKQYSEIKALHMEKMAKKVPAPAKRAVSGIAKTADVTSHPPTISQKDTIMEVDPPVGDAMKIRESASGRSNGGSGVIINDNTIQTQGRDANLKPGPEVSVQDLAARAASRYMASTVKSVKTPKTAYDFEVSWRALSDDTAQQIQLLKSIPPASLPEIFKNALSAPFLIDIVKCSASIFRDDTALAVSILENLARVPRFDLIIMCLSSMHKSELRKIWDQVFLAEKASADDQMEALRQLRGRYIPGGWQDSMLTSS
